From the supplement of paper PMC9112550, “Optimization of the antimicrobial peptide Bac7 by deep mutational scanning” (BMC Biology, 2022)

Test system: Escherichia coli TOP10
Assay: shrunken log2 fold change of peptide-encoding DNA abundance (4.5 h post-induction vs induction); higher = less antimicrobial activity (less host growth inhibition)
Details: time post-induction: 4.5 h; library: site-saturation at positions 5, 18, 19, 20
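Further: peptides expressed intracellularly from a pBAD plasmid library in pooled LB shake-flask culture, induced with 0.3% L-arabinose, DNA abundance read by NGS, three biological replicates, DESeq2 with apeglm shrinkage.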

Sequence: RRIRCRPPRLPRPRPRPCCVPRP
- shrunken log2 fold change: -0.409

Sequence: RRIRGRPPRLPRPRPRPVYVPRP
- shrunken log2 fold change: 0.0272

Sequence: RRIRQRPPRLPRPRPRPASLPRP
- shrunken log2 fold change: -0.232

Sequence: RRIRHRPPRLPRPRPRPCSCPRP
- shrunken log2 fold change: -0.0391

Sequence: RRIRDRPPRLPRPRPRPDWRPRP
- shrunken log2 fold change: 0.183

Sequence: RRIRQRPPRLPRPRPRPFVCPRP
- shrunken log2 fold change: -0.0472

Sequence: RRIRCRPPRLPRPRPRPCVDPRP
- shrunken log2 fold change: -0.164

Sequence: RRIRYRPPRLPRPRPRPRACPRP
- shrunken log2 fold change: -0.143

Sequence: RRIRYRPPRLPRPRPRPQPYPRP
- shrunken log2 fold change: -0.649

Sequence: RRIRGRPPRLPRPRPRPVTCPRP
- shrunken log2 fold change: 0.146

Sequence: RRIRLRPPRLPRPRPRPFERPRP
- shrunken log2 fold change: 0.198

Sequence: RRIRARPPRLPRPRPRPLRAPRP
- shrunken log2 fold change: 1.19

Sequence: RRIRPRPPRLPRPRPRPPAWPRP
- shrunken log2 fold change: 0.452

Sequence: RRIRYRPPRLPRPRPRPWVQPRP
- shrunken log2 fold change: -0.544

Sequence: RRIRERPPRLPRPRPRPFCFPRP
- shrunken log2 fold change: -0.106

Sequence: RRIRMRPPRLPRPRPRPTLQPRP
- shrunken log2 fold change: 0.13

Sequence: RRIRARPPRLPRPRPRPNNFPRP
- shrunken log2 fold change: -0.236

Sequence: RRIRLRPPRLPRPRPRPMQVPRP
- shrunken log2 fold change: -0.0149

Sequence: RRIRCRPPRLPRPRPRPYNLPRP
- shrunken log2 fold change: -0.986

Sequence: RRIRHRPPRLPRPRPRPQMDPRP
- shrunken log2 fold change: -0.106

Sequence: RRIRSRPPRLPRPRPRPEDDPRP
- shrunken log2 fold change: 0.744

Sequence: RRIRQRPPRLPRPRPRPWLFPRP
- shrunken log2 fold change: 0.0523

Sequence: RRIRKRPPRLPRPRPRPWNEPRP
- shrunken log2 fold change: -0.0249

Sequence: RRIRKRPPRLPRPRPRPNTRPRP
- shrunken log2 fold change: -0.0607

Sequence: RRIRIRPPRLPRPRPRPNMSPRP
- shrunken log2 fold change: -0.783

Sequence: RRIRHRPPRLPRPRPRPQPNPRP
- shrunken log2 fold change: -0.168

Sequence: RRIRARPPRLPRPRPRPMQDPRP
- shrunken log2 fold change: 0.188

Sequence: RRIRFRPPRLPRPRPRPNQVPRP
- shrunken log2 fold change: -1.05

Sequence: RRIRWRPPRLPRPRPRPMQPPRP
- shrunken log2 fold change: 0.185

Sequence: RRIRARPPRLPRPRPRPGSIPRP
- shrunken log2 fold change: -0.283

Sequence: RRIRCRPPRLPRPRPRPTTPPRP
- shrunken log2 fold change: 0.227

Sequence: RRIRVRPPRLPRPRPRPMWLPRP
- shrunken log2 fold change: 0.0511

Sequence: RRIRWRPPRLPRPRPRPAGWPRP
- shrunken log2 fold change: 0.922

Sequence: RRIRDRPPRLPRPRPRPTDLPRP
- shrunken log2 fold change: -0.0718

Sequence: RRIRNRPPRLPRPRPRPVHLPRP
- shrunken log2 fold change: -0.138

Sequence: RRIRVRPPRLPRPRPRPRMIPRP
- shrunken log2 fold change: 0.224

Sequence: RRIRKRPPRLPRPRPRPEYWPRP
- shrunken log2 fold change: -0.0125

Sequence: RRIRTRPPRLPRPRPRPRERPRP
- shrunken log2 fold change: 0.112

Sequence: RRIRYRPPRLPRPRPRPIEPPRP
- shrunken log2 fold change: -0.111

Sequence: RRIRGRPPRLPRPRPRPNSHPRP
- shrunken log2 fold change: 0.285

Sequence: RRIRKRPPRLPRPRPRPGVLPRP
- shrunken log2 fold change: 0.293

Sequence: RRIRGRPPRLPRPRPRPRWLPRP
- shrunken log2 fold change: 0.527

Sequence: RRIRPRPPRLPRPRPRPPCFPRP
- shrunken log2 fold change: 0.307

Sequence: RRIRARPPRLPRPRPRPENPPRP
- shrunken log2 fold change: 1.14

Sequence: RRIRQRPPRLPRPRPRPFEPPRP
- shrunken log2 fold change: -0.238

Sequence: RRIRIRPPRLPRPRPRPKSCPRP
- shrunken log2 fold change: -0.0687

Sequence: RRIRVRPPRLPRPRPRPYDSPRP
- shrunken log2 fold change: -0.126

Sequence: RRIRIRPPRLPRPRPRPMTSPRP
- shrunken log2 fold change: -0.0513

Sequence: RRIRHRPPRLPRPRPRPATQPRP
- shrunken log2 fold change: -0.038

Sequence: RRIRVRPPRLPRPRPRPGDVPRP
- shrunken log2 fold change: -0.262

Sequence: RRIRYRPPRLPRPRPRPRHEPRP
- shrunken log2 fold change: -0.802

Sequence: RRIRPRPPRLPRPRPRPVMQPRP
- shrunken log2 fold change: 0.136

Sequence: RRIRLRPPRLPRPRPRPCMIPRP
- shrunken log2 fold change: -0.21

Sequence: RRIRPRPPRLPRPRPRPMEYPRP
- shrunken log2 fold change: -0.00176

Sequence: RRIRNRPPRLPRPRPRPWNWPRP
- shrunken log2 fold change: -0.0655

Sequence: RRIRTRPPRLPRPRPRPRPTPRP
- shrunken log2 fold change: 0.626

Sequence: RRIRSRPPRLPRPRPRPYHTPRP
- shrunken log2 fold change: -0.652

Sequence: RRIRERPPRLPRPRPRPVPSPRP
- shrunken log2 fold change: -0.0655

Sequence: RRIRTRPPRLPRPRPRPMRVPRP
- shrunken log2 fold change: -0.036

Sequence: RRIRVRPPRLPRPRPRPVRMPRP
- shrunken log2 fold change: -0.0731

Sequence: RRIRRRPPRLPRPRPRPLQYPRP
- shrunken log2 fold change: 0.615

Sequence: RRIRARPPRLPRPRPRPHIFPRP
- shrunken log2 fold change: 0.141

Sequence: RRIRLRPPRLPRPRPRPDWPPRP
- shrunken log2 fold change: -0.0804

Sequence: RRIRIRPPRLPRPRPRPHIFPRP
- shrunken log2 fold change: -0.311

Sequence: RRIRKRPPRLPRPRPRPILWPRP
- shrunken log2 fold change: 0.149

Sequence: RRIRKRPPRLPRPRPRPSWVPRP
- shrunken log2 fold change: -0.0457

Sequence: RRIRARPPRLPRPRPRPSGMPRP
- shrunken log2 fold change: 0.197

Sequence: RRIRHRPPRLPRPRPRPGTWPRP
- shrunken log2 fold change: -0.0162

Sequence: RRIRKRPPRLPRPRPRPCCVPRP
- shrunken log2 fold change: 0.265

Sequence: RRIRYRPPRLPRPRPRPMMCPRP
- shrunken log2 fold change: 0.168

Sequence: RRIRLRPPRLPRPRPRPSKFPRP
- shrunken log2 fold change: -0.276

Sequence: RRIRSRPPRLPRPRPRPLTCPRP
- shrunken log2 fold change: -0.114

Sequence: RRIRLRPPRLPRPRPRPQTWPRP
- shrunken log2 fold change: 0.0171

Sequence: RRIRWRPPRLPRPRPRPIFLPRP
- shrunken log2 fold change: -0.509

Sequence: RRIRYRPPRLPRPRPRPHVYPRP
- shrunken log2 fold change: -0.748

Sequence: RRIRERPPRLPRPRPRPVFGPRP
- shrunken log2 fold change: -0.0574

Sequence: RRIRIRPPRLPRPRPRPIPFPRP
- shrunken log2 fold change: -1.35

Sequence: RRIRLRPPRLPRPRPRPKVNPRP
- shrunken log2 fold change: 0.0232

Sequence: RRIRDRPPRLPRPRPRPKYCPRP
- shrunken log2 fold change: -0.0392

Sequence: RRIRWRPPRLPRPRPRPFGQPRP
- shrunken log2 fold change: -0.0338

Sequence: RRIRHRPPRLPRPRPRPKHSPRP
- shrunken log2 fold change: -0.347

Sequence: RRIRNRPPRLPRPRPRPHDKPRP
- shrunken log2 fold change: -0.313

Sequence: RRIRMRPPRLPRPRPRPQDSPRP
- shrunken log2 fold change: 0.051

Sequence: RRIRRRPPRLPRPRPRPIHSPRP
- shrunken log2 fold change: 0.0881

Sequence: RRIRARPPRLPRPRPRPTCMPRP
- shrunken log2 fold change: 0.407

Sequence: RRIRWRPPRLPRPRPRPSTIPRP
- shrunken log2 fold change: -0.374

Sequence: RRIRMRPPRLPRPRPRPQTRPRP
- shrunken log2 fold change: 1.05

Sequence: RRIRIRPPRLPRPRPRPHLLPRP
- shrunken log2 fold change: 0.0103

Sequence: RRIRERPPRLPRPRPRPLAQPRP
- shrunken log2 fold change: 0.21

Sequence: RRIRGRPPRLPRPRPRPIDRPRP
- shrunken log2 fold change: 0.127

Sequence: RRIRMRPPRLPRPRPRPASHPRP
- shrunken log2 fold change: 0.343

Sequence: RRIRWRPPRLPRPRPRPECHPRP
- shrunken log2 fold change: 0.563

Sequence: RRIRHRPPRLPRPRPRPEMDPRP
- shrunken log2 fold change: 0.015

Sequence: RRIRTRPPRLPRPRPRPSFDPRP
- shrunken log2 fold change: -0.365

Sequence: RRIRSRPPRLPRPRPRPAFAPRP
- shrunken log2 fold change: 0.414

Sequence: RRIRKRPPRLPRPRPRPDEEPRP
- shrunken log2 fold change: 2.82

Sequence: RRIRGRPPRLPRPRPRPDNHPRP
- shrunken log2 fold change: 0.125

Sequence: RRIRLRPPRLPRPRPRPRNPPRP
- shrunken log2 fold change: -0.0997

Sequence: RRIRERPPRLPRPRPRPSMIPRP
- shrunken log2 fold change: -0.171

Sequence: RRIRTRPPRLPRPRPRPFLEPRP
- shrunken log2 fold change: -0.417

Sequence: RRIRLRPPRLPRPRPRPRDNPRP
- shrunken log2 fold change: -0.127

Sequence: RRIRRRPPRLPRPRPRPWRNPRP
- shrunken log2 fold change: 0.0985

Sequence: RRIRKRPPRLPRPRPRPHTEPRP
- shrunken log2 fold change: 0.0507

Sequence: RRIRRRPPRLPRPRPRPLELPRP
- shrunken log2 fold change: 0.199

Sequence: RRIRMRPPRLPRPRPRPYMCPRP
- shrunken log2 fold change: 0.00451

Sequence: RRIRIRPPRLPRPRPRPCDHPRP
- shrunken log2 fold change: -0.752

Sequence: RRIRARPPRLPRPRPRPTRWPRP
- shrunken log2 fold change: 0.539

Sequence: RRIRVRPPRLPRPRPRPRYAPRP
- shrunken log2 fold change: -0.000525

Sequence: RRIRKRPPRLPRPRPRPKYEPRP
- shrunken log2 fold change: 0.057
